Laboratory results published in article PMC6726633, “Different Grp94 components interact transiently with the myocilin olfactomedin domain in vitro to enhance or retard its amyloid aggregation” (Scientific Reports, 2019).

What was measured:
[1] = biological target: T1, Myocilin olfactomedin domain, residues 228-504 (human), Q99972; assay: cross-linking; OLF-only control samples of the BS3(d0/d4) cross-linking experiments, PBS; SDS-PAGE and LC-MS; details: remark: other sources report otherwise
T1 chain: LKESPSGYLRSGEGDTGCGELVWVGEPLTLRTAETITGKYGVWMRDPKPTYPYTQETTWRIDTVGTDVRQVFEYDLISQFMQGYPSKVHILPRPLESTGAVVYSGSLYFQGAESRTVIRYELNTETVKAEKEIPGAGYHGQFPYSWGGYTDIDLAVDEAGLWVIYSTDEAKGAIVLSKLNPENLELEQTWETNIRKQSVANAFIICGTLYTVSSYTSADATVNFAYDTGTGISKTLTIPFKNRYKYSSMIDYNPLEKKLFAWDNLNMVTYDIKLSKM

[2] = biological target: T2, Grp94 Pre-N truncation variant, residues 73-804 (canine) (Canis lupus familiaris, UniProt P41148 73-804); assay: co-sedimentation; after the ThT aggregation assay (Grp94 construct 3 μM, OLF 30 μM, PBS, 42 °C, up to 96 h): centrifugation 10 min at 17,000 x g; supernatant, wash and pellet on 12% reducing SDS-PAGE, Coomassie, densitometry; only samples containing OLF gave pellets; details: both partners purified
T2 construct: C-terminal 6xHis tag is non-cleavable; not shown: His6, C-terminal, kept

[3] = biological target: T3, Grp94 N-terminal nucleotide-binding domain (including Pre-N), residues 22-337 (human, UniProt P14625 22-337); assay: as above; details: both partners purified
T3 construct: Grp94, Homo sapiens, residues 22-337 (STOP codon installed after position 337 on the Grp94FL template); Tag removed with TEV protease; also called N domain; source: E. coli BL21(DE3), purified (HisTrap, SEC, TEV cleavage, SEC); not shown: His6, N-terminal, cleaved

[4] = biological target: T4, Grp94 Pre-N truncation variant, residues 58-804 (canine) (Canis lupus familiaris, UniProt P41148 58-804); assay: as above; details: both partners purified
T4 construct: C-terminal 6xHis tag is non-cleavable; not shown: His6, C-terminal, kept

[5] = biological target: T5, Grp94 N and middle domains, residues 22-594 (human, UniProt P14625 22-594); assay: cross-linking; Grp94N, Grp94NM or Grp94MC:OLF 1:1, OLF 100 μM (dansylated or label-free), PBS, 10 mM BS3(d0/d4) 3 h at 37 °C; SDS-PAGE (Coomassie, dansyl fluorescence), in-gel digestion and LC-MS; details: both partners purified
T5 construct: Grp94, Homo sapiens, residues 22-594 (STOP codon installed after position 594 on the Grp94FL template); Tag removed with TEV protease; also called Grp94NM; NM; source: E. coli BL21(DE3), purified (HisTrap, SEC, TEV cleavage, SEC); not shown: His6, N-terminal, cleaved
T5 sequence (P14625 22-594): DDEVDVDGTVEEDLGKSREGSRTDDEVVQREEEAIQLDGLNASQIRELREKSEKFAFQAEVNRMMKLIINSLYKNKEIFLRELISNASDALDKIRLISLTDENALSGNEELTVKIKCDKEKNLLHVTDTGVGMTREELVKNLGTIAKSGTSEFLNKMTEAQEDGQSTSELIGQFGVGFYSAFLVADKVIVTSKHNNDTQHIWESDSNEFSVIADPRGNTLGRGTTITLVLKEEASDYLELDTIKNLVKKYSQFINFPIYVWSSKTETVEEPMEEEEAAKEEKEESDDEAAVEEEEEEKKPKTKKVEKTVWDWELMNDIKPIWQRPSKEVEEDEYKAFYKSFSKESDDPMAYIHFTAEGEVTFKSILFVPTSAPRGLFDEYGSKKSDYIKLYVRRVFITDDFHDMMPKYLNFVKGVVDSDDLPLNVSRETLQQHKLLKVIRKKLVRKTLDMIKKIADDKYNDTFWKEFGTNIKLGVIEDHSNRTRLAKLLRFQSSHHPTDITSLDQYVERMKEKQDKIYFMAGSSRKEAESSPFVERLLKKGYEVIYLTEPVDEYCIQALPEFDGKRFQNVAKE

T2 sequence (P41148 73-804, change not shown): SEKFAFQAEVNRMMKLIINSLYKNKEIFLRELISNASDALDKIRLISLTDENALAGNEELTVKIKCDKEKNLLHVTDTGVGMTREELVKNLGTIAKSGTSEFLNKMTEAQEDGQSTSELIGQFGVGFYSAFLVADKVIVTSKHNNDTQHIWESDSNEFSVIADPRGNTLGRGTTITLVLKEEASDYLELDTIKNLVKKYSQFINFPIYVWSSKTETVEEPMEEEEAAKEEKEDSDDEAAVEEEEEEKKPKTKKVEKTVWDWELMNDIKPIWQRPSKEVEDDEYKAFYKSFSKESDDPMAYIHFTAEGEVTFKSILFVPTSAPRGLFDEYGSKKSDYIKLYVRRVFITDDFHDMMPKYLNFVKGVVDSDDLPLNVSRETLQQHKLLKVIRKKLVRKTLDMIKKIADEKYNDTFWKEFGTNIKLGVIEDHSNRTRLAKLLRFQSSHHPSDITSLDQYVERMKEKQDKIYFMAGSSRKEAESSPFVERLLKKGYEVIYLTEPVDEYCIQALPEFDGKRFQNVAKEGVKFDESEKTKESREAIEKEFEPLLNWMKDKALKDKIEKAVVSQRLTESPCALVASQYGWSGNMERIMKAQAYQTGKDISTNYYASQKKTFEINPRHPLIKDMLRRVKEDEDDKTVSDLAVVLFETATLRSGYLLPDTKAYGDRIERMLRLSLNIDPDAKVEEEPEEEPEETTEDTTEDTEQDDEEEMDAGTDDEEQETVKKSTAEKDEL
T3 sequence (P14625 22-337): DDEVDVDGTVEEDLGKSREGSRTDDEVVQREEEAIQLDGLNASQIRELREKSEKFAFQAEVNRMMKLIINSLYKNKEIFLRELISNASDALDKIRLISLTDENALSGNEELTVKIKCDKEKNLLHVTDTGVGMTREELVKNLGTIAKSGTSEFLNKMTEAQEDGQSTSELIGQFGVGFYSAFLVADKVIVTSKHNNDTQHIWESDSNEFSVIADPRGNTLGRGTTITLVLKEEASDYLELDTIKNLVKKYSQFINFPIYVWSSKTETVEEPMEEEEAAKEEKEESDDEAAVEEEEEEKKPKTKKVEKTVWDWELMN
T4 sequence (P41148 58-804, change not shown): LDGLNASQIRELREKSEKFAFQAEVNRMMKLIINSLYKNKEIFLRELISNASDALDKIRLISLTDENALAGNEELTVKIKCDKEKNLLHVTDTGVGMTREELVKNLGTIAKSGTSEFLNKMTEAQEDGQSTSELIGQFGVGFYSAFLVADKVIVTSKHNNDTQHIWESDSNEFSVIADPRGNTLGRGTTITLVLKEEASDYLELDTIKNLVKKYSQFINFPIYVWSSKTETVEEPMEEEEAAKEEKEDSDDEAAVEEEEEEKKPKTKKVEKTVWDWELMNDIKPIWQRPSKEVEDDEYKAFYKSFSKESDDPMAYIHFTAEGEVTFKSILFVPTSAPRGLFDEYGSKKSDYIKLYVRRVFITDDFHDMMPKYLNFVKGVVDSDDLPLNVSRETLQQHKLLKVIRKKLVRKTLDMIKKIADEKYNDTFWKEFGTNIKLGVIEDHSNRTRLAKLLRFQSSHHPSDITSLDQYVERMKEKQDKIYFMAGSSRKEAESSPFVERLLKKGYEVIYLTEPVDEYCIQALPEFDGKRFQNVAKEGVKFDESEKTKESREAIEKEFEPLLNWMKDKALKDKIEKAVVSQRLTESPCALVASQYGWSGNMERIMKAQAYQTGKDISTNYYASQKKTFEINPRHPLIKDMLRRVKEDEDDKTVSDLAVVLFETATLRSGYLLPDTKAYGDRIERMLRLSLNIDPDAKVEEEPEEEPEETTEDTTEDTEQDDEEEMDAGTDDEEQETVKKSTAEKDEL

B1: Myocilin olfactomedin domain, residues 228-504, Q99972 228-504 (domain or fragment)
chain: T1 chain
For B1, the stoichiometry N [1] was 2.

B2: Myocilin olfactomedin domain, residues 228-504 (domain or fragment, human, UniProt Q99972 228-504, looked up)
chain: T1 chain
notes: Myocilin C-terminal olfactomedin (OLF) domain, Homo sapiens, residues 228-504; The results call S233 the N-terminal residue of the OLF construct, though the methods give residues 228-504 and a cross-link at K229 is reported; also called wild-type OLF
B2: binds [2]; binds [3]; binds [4]. B2: binds [5].

B3: Dansylated myocilin olfactomedin domain (domain or fragment, human, UniProt Q99972 228-504, looked up)
chain: T1 chain
modifications: dansyl (~2 dansyl modifications per OLFd by MS), sites not stated
notes: Myocilin C-terminal olfactomedin (OLF) domain, Homo sapiens, residues 228-504; Same construct as m7, chemically labelled; also called OLFd; dansyl-modified OLF
B3: binds [5].
